The source of these data is patent US20070149453A1.

Series [1] concerns the target mouse p55 TNF receptor (mouse) (UniProt P25118). Put plainly: cell-based or functional assay.
For series [2], the target named is mouse p75 TNF receptor (mouse) (UniProt P25119). Put plainly: cell-based or functional assay.
Series [3] addresses T1, p75 TNF Receptor peptide (Dabcyl-C-T-S-T-S-P-T-R-Edans).
T1 chain: CTSTSPTR

The target in series [4] is T2, p55 TNF Receptor peptide (Dabcyl-N-V-K-G-T-E-D-S-G-Edans).
T2 chain: NVKGTEDSG

Series [5] concerns the target T3, IL-1 Type I Receptor peptide (Dabcyl-T-H-G-I-D-A-A-Y-I-Q-Edans).
T3 chain: THGIDAAYIQ

For series [6], the target named is T4, IL-1 Type II Receptor peptide (Dabcyl-Q-T-K-R-T-T-V-K-E-A-Edans).
T4 chain: QTKRTTVKEA

Series [7] has as its target T5, IL-6 Receptor peptide (Dabcyl-A-N-A-T-S-L-P-Edans).
T5 chain: ANATSLP

mouse p75 TNF receptor (mouse), sequence (P25119 23-474 limits assumed): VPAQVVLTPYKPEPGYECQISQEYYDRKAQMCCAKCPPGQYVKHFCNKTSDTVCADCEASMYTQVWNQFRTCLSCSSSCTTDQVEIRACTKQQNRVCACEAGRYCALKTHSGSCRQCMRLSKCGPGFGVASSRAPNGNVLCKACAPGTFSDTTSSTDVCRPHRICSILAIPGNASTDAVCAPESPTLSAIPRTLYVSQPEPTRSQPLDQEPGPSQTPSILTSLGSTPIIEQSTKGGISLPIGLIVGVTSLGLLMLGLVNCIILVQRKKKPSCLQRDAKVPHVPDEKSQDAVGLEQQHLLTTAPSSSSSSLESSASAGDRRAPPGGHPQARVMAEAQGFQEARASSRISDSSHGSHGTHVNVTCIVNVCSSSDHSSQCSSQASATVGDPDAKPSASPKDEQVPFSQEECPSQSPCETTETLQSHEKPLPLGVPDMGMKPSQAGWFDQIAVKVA
mouse p55 TNF receptor (mouse), sequence (P25118 30-454 limits assumed): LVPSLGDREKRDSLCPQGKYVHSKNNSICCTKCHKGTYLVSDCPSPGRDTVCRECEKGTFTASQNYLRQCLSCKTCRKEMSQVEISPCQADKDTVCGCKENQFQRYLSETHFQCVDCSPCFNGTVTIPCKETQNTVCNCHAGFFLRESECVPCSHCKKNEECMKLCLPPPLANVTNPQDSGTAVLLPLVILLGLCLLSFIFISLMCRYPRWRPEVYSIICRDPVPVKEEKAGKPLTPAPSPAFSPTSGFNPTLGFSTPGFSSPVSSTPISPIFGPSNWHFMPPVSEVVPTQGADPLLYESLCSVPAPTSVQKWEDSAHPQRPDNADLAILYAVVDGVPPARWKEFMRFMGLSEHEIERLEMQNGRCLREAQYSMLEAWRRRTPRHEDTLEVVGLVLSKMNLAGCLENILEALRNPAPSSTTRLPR

B1: MP8 (original clone, core MP8, N-terminal His tag and thrombin site) (protein)
chain: WIQRIRHEGNSTVYEWRTGTEPSVVERPHLEELPEQVAEDAIDWGDFGVEAVSEGTDSGISAEAAGIDWGIFPESDSKDPGGDGIDWGDDAVALQITVLEAGTQAPEGVARGPDALTLLEYTETRNQFLDELMELEIFLAQRAVELSEEADVLSVSQFQLAPAILQGQTKEKMVTMVSVLEDLIGKLTSLQLQHLFMILASPRYVDRVTEFLQQKLKQSQLLALKKELMVQKQQEALEEQAALEPKLDLLLEKTKELQKLIEADISKRYSGRPVNLMGTSL
As for B1, the circulating TNF receptor in serum of Balb/c mice after s.c. MP8 (ELISA) in series [1] and in series [2] was 100 fold in each case. Further, the “peptide cleavage (FRET assay, Zn++/Ca++ dependent)” value in series [3] is “MP8 cleaves the peptides from both the p55 and p75 TNF receptors (TNF-R1 and TNF-R2)”; in series [4], “MP8 cleaves the peptides from both the p55 and p75 TNF receptors (TNF-R1 and TNF-R2)”; in series [7] it was “MP8 also cleaves the IL-6 receptor peptide with high activity”. Moreover, the “relative peptide cleavage activity (FRET assay)” value in series [5] is “Clone MP8 shows specificity for several receptors involved in the inflammatory pathway (TNF-R p55 and p75 isoforms, IL-6 receptor and IL-1 receptors) in comparison with control substrates”; in series [6], “Clone MP8 shows specificity for several receptors involved in the inflammatory pathway (TNF-R p55 and p75 isoforms, IL-6 receptor and IL-1 receptors) in comparison with control substrates”.

B2: MP8-FL2 (full length MP8 without His tag, from E. coli strain MP820) (protein)
chain: MCVHPGACLPHVGVSWAEFPGHFSVELSSLLVRNVNYEIPSLKKQIAKCQQLQQEYSRKEEECQAGAAEMREQFYHSCKQYGITGENVRGELLALVKDLPSQLAEIGAAAQQSLGEAIDVYQASVGFVCESPTEQVLPMLRFVQKRGNSTVYEWRTGTEPSVVERPHLEELPEQVAEDAIDWGDFGVEAVSEGTDSGISAEAAGIDWGIFPESDSKDPGGDGIDWGDDAVALQITVLEAGTQAPEGVARGPDALTLLEYTETRNQFLDELMELEIFLAQRAVELSEEADVLSVSQFQLAPAILQGQTKEKMVTMVSVLEDLIGKLTSLQLQHLFMILASPRYVDRVTEFLQQKLKQSQLLALKKELMVQKQQEALEEQAALEPKLDLLLEKTKELQKLIEADISKRYSGRPVNLMGTSL
With B2, the “peptide cleavage (FRET assay)” value was “The same preparation of MP8-FL2 caused cleavage of both R1 ... and R2 (Dabcyl-C-T-S-T-S-P-T-R-Edans; SEQ. ID NO:73)” in series [3]; “The same preparation of MP8-FL2 caused cleavage of both R1 (Dabcyl-N-V-K-G-T-E-D-S-G-Edans; SEQ. ID NO:71) and R2” in series [4].
